According to the supplement of paper PMC10065799, “High-throughput profiling of sequence recognition by tyrosine kinases and SH2 domains using bacterial peptide display” (eLife, 2023):

What was measured:
[1] = target: SHP2-C SH2; test: SH2 binding enrichment of the phosphorylated peptide, bacterial display (enrichment ratio); higher = better substrate or ligand; peptides without Tyr show the background
[2] = target: c-Src SH2; test: as above
[3] = target: Grb2 SH2 (UniProt P62993); test: as above
[4] = test system: c-Abl (mouse); test: phosphorylation enrichment, bacterial display (enrichment ratio); higher = better substrate or ligand; peptides without Tyr show the background
[5] = target: Fyn (UniProt P06241); test: as above
[6] = target: Hck (UniProt P08631); test: as above
[7] = target: EPHB2 (UniProt P29323); test: as above
[8] = target: EPHB1 (UniProt P54762); test: as above
[9] = target: Fes (UniProt P07332); test: as above
[10] = target: MERTK (UniProt Q12866); test: as above
[11] = test system: Fer (mouse); test: as above
[12] = target: FGFR1 (UniProt P11362); test: as above
[13] = test system: AncSZ; test: as above
[14] = target: FGFR3 (UniProt P22607); test: as above
[15] = test system: c-Src; test: as above
[16] = target: Jak2 (UniProt O60674); test: as above
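Throughout, for SH2 binding enrichment of the phosphorylated peptide, bacterial display: peptide library displayed on the E. coli surface as eCPX fusions, selected cells deep-sequenced, score is each peptide's frequency after selection divided by its frequency in the input.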
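Throughout, for phosphorylation enrichment, bacterial display: 11-residue human phosphosite peptides and single-mutation variants displayed on the E. coli surface, counted by deep sequencing, each peptide's frequency after selection divided by its frequency in the unselected input library; frequency after pTyr selection over input frequency; kinase dosed for 20-30% of maximal phosphorylation in three min.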

Sequence of Fyn (P06241 whole entry, looked up): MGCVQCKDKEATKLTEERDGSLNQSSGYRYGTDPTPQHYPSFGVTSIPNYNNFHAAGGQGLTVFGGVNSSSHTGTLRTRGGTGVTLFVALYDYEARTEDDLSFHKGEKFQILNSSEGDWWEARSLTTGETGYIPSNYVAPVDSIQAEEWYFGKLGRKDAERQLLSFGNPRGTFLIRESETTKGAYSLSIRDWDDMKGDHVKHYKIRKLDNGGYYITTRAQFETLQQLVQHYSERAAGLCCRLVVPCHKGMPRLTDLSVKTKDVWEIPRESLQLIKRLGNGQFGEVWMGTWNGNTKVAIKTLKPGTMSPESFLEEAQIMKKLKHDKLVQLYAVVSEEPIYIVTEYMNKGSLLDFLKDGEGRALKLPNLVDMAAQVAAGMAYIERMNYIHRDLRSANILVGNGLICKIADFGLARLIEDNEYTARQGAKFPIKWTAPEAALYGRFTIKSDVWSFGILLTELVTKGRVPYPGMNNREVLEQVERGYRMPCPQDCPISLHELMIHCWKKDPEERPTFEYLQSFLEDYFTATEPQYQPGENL
Sequence of FGFR3 (P22607 whole entry, looked up): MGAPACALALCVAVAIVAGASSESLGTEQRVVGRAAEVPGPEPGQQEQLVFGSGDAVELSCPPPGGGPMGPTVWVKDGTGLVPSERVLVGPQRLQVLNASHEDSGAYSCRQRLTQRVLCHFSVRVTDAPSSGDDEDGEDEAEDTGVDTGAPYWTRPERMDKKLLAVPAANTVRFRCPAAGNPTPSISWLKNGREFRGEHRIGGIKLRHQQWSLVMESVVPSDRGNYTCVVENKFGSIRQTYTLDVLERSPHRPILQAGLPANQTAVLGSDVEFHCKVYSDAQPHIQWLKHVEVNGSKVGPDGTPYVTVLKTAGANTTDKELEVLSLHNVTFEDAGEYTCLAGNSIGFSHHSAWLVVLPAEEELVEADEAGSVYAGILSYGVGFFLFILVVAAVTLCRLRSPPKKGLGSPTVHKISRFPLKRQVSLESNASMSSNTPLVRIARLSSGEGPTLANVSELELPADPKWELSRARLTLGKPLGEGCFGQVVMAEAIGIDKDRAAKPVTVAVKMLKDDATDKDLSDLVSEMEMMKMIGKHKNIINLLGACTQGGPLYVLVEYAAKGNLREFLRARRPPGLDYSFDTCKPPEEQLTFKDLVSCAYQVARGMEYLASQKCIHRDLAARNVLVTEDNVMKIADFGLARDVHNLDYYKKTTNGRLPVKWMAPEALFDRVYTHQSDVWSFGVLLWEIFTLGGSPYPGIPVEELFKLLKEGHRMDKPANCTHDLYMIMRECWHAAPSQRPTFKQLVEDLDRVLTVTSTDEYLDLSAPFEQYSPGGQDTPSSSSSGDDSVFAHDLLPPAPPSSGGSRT
Sequence of Fes (P07332 whole entry, looked up): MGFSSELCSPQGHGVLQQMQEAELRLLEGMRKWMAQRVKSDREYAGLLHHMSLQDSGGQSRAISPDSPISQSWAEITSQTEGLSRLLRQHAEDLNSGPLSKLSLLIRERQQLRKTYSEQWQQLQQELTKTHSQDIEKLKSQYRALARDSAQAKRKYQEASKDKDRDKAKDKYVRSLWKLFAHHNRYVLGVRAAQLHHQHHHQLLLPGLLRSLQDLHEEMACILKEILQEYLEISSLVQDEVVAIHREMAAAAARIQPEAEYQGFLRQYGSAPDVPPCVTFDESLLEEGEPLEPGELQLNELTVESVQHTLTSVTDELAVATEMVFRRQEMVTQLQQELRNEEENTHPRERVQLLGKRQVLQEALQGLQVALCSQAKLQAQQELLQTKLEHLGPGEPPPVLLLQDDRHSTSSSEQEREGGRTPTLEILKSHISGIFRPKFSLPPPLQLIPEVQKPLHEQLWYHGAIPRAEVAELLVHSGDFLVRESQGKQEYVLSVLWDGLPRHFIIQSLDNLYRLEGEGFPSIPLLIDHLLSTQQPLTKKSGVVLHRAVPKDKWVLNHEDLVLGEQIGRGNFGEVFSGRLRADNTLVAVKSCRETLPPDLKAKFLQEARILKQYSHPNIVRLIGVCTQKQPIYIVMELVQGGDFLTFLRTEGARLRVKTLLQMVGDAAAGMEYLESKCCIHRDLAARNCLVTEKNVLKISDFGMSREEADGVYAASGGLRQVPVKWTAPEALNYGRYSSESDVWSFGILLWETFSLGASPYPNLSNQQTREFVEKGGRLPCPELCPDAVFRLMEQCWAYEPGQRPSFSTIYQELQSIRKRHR
Sequence of EPHB1 (P54762 whole entry, looked up): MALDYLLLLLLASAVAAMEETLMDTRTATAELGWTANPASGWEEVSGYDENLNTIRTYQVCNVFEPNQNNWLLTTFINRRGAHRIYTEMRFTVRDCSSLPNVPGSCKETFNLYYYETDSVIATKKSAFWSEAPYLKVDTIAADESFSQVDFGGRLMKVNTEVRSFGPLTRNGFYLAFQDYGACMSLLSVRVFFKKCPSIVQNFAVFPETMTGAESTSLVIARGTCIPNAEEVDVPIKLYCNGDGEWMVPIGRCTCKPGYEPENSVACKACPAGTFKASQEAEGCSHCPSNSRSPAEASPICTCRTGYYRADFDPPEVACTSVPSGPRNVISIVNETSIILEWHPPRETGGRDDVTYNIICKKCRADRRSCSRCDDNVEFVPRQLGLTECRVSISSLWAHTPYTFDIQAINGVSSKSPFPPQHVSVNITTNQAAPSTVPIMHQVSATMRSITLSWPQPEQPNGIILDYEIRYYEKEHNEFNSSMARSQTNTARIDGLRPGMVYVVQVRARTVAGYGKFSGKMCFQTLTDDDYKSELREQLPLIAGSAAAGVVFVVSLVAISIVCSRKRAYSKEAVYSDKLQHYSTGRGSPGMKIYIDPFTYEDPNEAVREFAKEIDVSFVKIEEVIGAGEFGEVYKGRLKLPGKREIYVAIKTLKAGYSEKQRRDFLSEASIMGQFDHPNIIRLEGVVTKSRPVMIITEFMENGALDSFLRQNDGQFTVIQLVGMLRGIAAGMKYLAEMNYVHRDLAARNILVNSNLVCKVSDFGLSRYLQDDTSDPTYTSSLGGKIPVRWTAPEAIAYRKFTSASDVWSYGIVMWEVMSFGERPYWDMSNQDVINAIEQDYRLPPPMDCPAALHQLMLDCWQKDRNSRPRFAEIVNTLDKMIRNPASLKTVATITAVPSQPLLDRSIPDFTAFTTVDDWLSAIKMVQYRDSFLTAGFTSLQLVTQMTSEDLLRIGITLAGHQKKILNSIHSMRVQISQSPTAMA
Sequence of FGFR1 (P11362 whole entry, looked up): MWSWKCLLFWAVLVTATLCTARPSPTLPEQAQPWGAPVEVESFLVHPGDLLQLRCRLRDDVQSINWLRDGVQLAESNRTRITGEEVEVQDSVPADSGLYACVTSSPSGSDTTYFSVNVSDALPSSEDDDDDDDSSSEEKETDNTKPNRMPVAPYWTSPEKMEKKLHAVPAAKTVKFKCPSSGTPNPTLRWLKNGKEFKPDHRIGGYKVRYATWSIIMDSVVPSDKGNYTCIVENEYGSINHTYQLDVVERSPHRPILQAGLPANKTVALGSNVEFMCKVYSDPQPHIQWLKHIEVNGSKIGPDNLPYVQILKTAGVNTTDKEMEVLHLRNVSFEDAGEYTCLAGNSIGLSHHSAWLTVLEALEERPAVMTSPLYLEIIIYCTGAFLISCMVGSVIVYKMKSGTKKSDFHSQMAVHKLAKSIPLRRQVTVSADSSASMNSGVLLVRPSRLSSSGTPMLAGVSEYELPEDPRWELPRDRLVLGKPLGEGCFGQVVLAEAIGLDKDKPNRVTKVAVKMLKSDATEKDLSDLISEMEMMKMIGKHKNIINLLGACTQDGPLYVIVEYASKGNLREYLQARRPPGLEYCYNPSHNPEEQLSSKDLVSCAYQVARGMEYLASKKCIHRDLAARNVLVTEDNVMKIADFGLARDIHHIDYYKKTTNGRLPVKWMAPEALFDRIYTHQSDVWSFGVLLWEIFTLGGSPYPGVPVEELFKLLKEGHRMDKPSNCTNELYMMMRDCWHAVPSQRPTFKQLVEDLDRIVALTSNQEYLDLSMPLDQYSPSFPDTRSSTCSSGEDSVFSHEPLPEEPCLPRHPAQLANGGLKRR
Sequence of MERTK (Q12866 whole entry, looked up): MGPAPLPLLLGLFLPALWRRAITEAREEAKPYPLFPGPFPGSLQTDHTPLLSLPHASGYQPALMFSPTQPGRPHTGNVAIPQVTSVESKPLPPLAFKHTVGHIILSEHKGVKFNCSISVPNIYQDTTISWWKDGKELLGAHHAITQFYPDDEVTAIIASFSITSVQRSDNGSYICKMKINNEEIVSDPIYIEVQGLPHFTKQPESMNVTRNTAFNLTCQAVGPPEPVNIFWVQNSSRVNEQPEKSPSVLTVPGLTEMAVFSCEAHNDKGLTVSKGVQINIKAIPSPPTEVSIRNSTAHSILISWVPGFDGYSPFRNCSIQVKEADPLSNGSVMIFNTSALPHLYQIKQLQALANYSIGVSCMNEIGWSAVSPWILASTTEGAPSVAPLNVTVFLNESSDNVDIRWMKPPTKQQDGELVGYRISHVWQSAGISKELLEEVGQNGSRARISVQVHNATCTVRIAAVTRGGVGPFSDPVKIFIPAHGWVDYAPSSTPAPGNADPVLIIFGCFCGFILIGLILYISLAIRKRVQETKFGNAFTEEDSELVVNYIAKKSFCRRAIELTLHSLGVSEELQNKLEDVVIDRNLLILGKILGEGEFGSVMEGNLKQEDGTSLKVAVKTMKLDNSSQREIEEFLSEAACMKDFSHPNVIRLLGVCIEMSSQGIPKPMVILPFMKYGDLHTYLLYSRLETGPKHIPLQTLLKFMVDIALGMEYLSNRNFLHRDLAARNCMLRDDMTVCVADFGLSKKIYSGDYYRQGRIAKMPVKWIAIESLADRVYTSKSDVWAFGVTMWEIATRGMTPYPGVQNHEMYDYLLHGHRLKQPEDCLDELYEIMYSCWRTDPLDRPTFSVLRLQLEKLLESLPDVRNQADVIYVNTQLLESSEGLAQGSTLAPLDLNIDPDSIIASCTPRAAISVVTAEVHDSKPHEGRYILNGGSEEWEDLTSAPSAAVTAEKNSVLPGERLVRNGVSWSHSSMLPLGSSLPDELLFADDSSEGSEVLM

SH2 binding enrichment [1]	SH2 binding enrichment [2]	SH2 binding enrichment [3]	Sequence	phosphorylation enrichment [4]	phosphorylation enrichment [5]	phosphorylation enrichment [6]	phosphorylation enrichment [7]	phosphorylation enrichment [8]	phosphorylation enrichment [9]	phosphorylation enrichment [10]	phosphorylation enrichment [11]	phosphorylation enrichment [12]	phosphorylation enrichment [13]	phosphorylation enrichment [14]	phosphorylation enrichment [15]	phosphorylation enrichment [16]
1.1	0.718	0.979	ILCTVYAFKMR [GRM3_Y754_T758M]	0.883	0.567	0.55	0.568	0.97	1.47	0.47	0.553	0.503	1.46	0.89	0.65	1.09
0.495	0.459	0.802	KKILCYIQGGS [HYDIN_Y4610_N4606K]	1.07	0.499	0.521	0.609	0.611	1.46	0.549	0.58	0.439	1.31	0.758	0.411	1.17
0.969	0.735	0.836	FCIDHYLGKEM [G6PD_Y202_R198C_YF]	0.49	0.657	0.43	0.505	0.581	0.901	0.375	0.633	0.397	0.725	0.569	0.394	0.63
1.05	1.02	1.55	RHLLRYLSWTV [CLCNKB_Y93_S88R]	0.969	0.507	0.614	0.591	0.712	1.29	0.379	0.594	0.532	0.883	0.521	0.516	0.982
0.752	1.01	1.19	SGRSGYCLGTR [SCO1_Y60_P58S]	0.514	0.341	0.348	0.535	0.309	0.834	0.55	0.399	0.518	0.586	0.432	0.424	0.617
0.532	1.26	0.804	NYDLDYDSVQP [MYC_Y16]	1.02	0.659	0.78	1.96	1.19	1.63	0.493	1.09	0.74	3.13	1.03	1.18	1.39
0.711	0.523	0.791	CTLLPYFSARV [DGKE_Y269_YF]	1.11	0.453	0.508	0.615	0.613	1.11	0.424	0.515	0.518	0.987	0.736	0.43	1.09
0.798	0.534	1.01	VGQRPYQPLPE [REEP3_Y170]	0.547	0.375	0.36	0.424	0.38	0.649	0.406	0.336	0.47	0.617	0.525	0.393	0.505
0.832	0.502	0.798	DLDATYRPMYS [JUP_Y701_M697L]	0.486	0.46	0.6	0.444	0.399	0.86	0.386	0.433	0.383	0.699	0.512	0.569	0.588
0.747	0.528	0.748	SGSFRYGSSCE [SELE_Y390]	0.486	0.45	0.47	0.456	0.412	0.801	0.388	0.353	0.393	0.642	0.554	0.466	0.644
0.923	0.544	0.912	LQLLGHRPVFS [CHST6_Y358_Y358H_YF]	0.919	0.786	0.957	0.783	0.847	1.33	0.602	0.817	0.657	0.901	0.785	0.579	1.03
0.624	0.458	0.76	VDESLYKTHPQ [HK1_Y417_G414E]	0.9	0.592	0.656	0.706	0.513	0.989	0.553	0.572	0.644	0.904	0.699	0.541	0.811
1.12	0.676	0.922	MKGEYYRYLAE [YWHAG_Y131_D129E]	0.82	0.606	0.732	0.779	0.685	1.07	0.471	0.429	4.14	1.12	2.92	0.795	1.42
0.723	0.802	1.16	VGSIKYLKREW [KCNMA1_Y885_E884K]	0.482	0.395	0.446	0.505	0.56	0.754	0.311	0.465	0.412	0.68	0.431	0.38	0.61
0.784	1.58	0.76	LQFKNYQQLFD [MAN2A1_Y442]	0.636	0.379	0.527	0.532	0.641	0.985	0.358	0.391	0.453	0.944	0.679	0.377	0.882
0.764	0.755	1.02	SFCFRYCCAAR [SUMF1_Y344_R345C_YF]	0.7	0.487	0.436	0.611	0.659	1.23	0.445	0.517	0.504	1.25	0.723	0.397	1.02
